Assay results taken from the supplement of paper PMC11246515.
± gives the standard deviation of the averaged measurements.

Assay: total protein half-life in vivo (active degradation + dilution); higher = more stable protein
[1] = E. coli NCM3722 delta-clpP delta-lon delta-hslV, growth: N-lim chemostat, doubling time 6 h
[2] = E. coli NCM3722 delta-clpP, growth: N-lim chemostat, doubling time 6 h
[3] = E. coli NCM3722 delta-hslV, growth: N-lim chemostat, doubling time 6 h
[4] = E. coli NCM3722 delta-lon, growth: N-lim chemostat, doubling time 6 h
[5] = E. coli NCM3722 delta-smpB, growth: N-lim chemostat, doubling time 6 h
[6] = wild type E. coli NCM3722, growth: C-lim chemostat, doubling time 3 h
[7] = wild type E. coli NCM3722, growth: C-lim chemostat, doubling time 6 h
[8] = wild type E. coli NCM3722, growth: N-lim chemostat, doubling time 6 h
[9] = wild type E. coli NCM3722, growth: N-lim chemostat, doubling time 12 h
[10] = wild type E. coli NCM3722, growth: P-lim chemostat, doubling time 6 h
[11] = wild type E. coli NCM3722, growth: P-lim chemostat, doubling time 12 h
[12] = wild type E. coli NCM3722, growth: C-lim chemostat, doubling time 12 h

Sequence: MGMENYNPPQEPWLVILYQDDHIMVVNKPSGLLSVPGRLEEHKDSVMTRIQRDYPQAESVHRLDMATSGVIVVALTKAAERELKRQFREREPKKQYVARVWGHPSPAEGLVDLPLICDWPNRPKQKVCYETGKPAQTEYEVVEYAADNTARVVLKPITGRSHQLRVHMLALGHPILGDRFYASPEARAMAPRLLLHAEMLTITHPAYGNSMTFKAPADF [P0AA37]
- total protein half-life in vivo [1]: 4.98 ± 0.17 h
- total protein half-life in vivo [2]: 4.59 ± 0.51 h
- total protein half-life in vivo [3]: 5.03 ± 0.2 h
- total protein half-life in vivo [4]: 4.55 ± 1.1 h
- total protein half-life in vivo [5]: 4.63 ± 0.28 h
- total protein half-life in vivo [6]: 3.82 h
- total protein half-life in vivo [7]: 7.71 h
- total protein half-life in vivo [8]: 4.66 ± 0.18 h
- total protein half-life in vivo [9]: 7.6 h
- total protein half-life in vivo [10]: 6.39 h
- total protein half-life in vivo [11]: 12.7 h

Sequence: MGMIGYFAEIDSEKINQLLESTEKPLMDNIHDTLSGLRRLDIDKRWDFLHFGLTGTSAFDPAKNDPLSRAVLGEHSLEDGIDGFLGLTWNQELAATIDRLESLDRNELRKQFSIKRLNEMEIYPGVTFSEELEGQLFASIMLDMEKLISAYRRMLRQGNHALTVIVG
- total protein half-life in vivo [3]: 2.19 h
- total protein half-life in vivo [5]: 1.91 ± 0.022 h
- total protein half-life in vivo [6]: 1.89 h
- total protein half-life in vivo [7]: 4.04 h
- total protein half-life in vivo [12]: 4.57 h
- total protein half-life in vivo [10]: 3.44 ± 0.17 h
- total protein half-life in vivo [11]: 6.19 ± 0.12 h

Sequence: MGQEKLYIEKELSWLSFNERVLQEAADKSNPLIERMRFLGIYSNNLDEFYKVRFAELKRRIIISEEQGSNSHSRHLLGKIQSRVLKADQEFDGLYNELLLEMARNQIFLINERQLSVNQQNWLRHYFKQYLRQHITPILINPDTDLVQFLKDDYTYLAVEIIRGDTIRYALLEIPSDKVPRFVNLPPEAPRRRKPMILLDNILRYCLDDIFKGFFDYDALNAYSMKMTRDAEYDLVHEMEASLMELMSSSLKQRLTAEPVRFVYQRDMPNALVEVLREKLTISRYDSIVPGGRYHNFKDFINFPNVGKANLVNKPLPRLRHIWFDKAQFRNGFDAIRERDVLLYYPYHTFEHVLELLRQASFDPSVLAIKINIYRVAKDSRIIDSMIHAAHNGKKVTVVVELQARFDEEANIHWAKRLTEAGVHVIFSAPGLKIHAKLFLISRKENGEVVRYAHIGTGNFNEKTARLYTDYSLLTADARITNEVRRVFNFIENPYRPVTFDYLMVSPQNSRRLLYEMVDREIANAQQGLPSGITLKLNNLVDKGLVDRLYAASSSGVPVNLLVRGMCSLIPNLEGISDNIRAISIVDRYLEHDRVYIFENGGDKKVYLSSADWMTRNIDYRIEVATPLLDPRLKQRVLDIIDILFSDTVKARYIDKELSNRYVPRGNRRKVRAQLAIYDYIKSLEQPE [P0A7B1]
- total protein half-life in vivo [1]: 6.92 ± 0.14 h
- total protein half-life in vivo [2]: 6.36 ± 0.29 h
- total protein half-life in vivo [3]: 6.79 ± 0.42 h
- total protein half-life in vivo [4]: 6.1 ± 0.063 h
- total protein half-life in vivo [5]: 6.038 ± 0.039 h
- total protein half-life in vivo [6]: 3.29 ± 0.35 h
- total protein half-life in vivo [7]: 6.27 ± 0.57 h
- total protein half-life in vivo [8]: 5.94 ± 0.53 h
- total protein half-life in vivo [9]: 13 ± 1.2 h
- total protein half-life in vivo [10]: 6.65 ± 0.23 h
- total protein half-life in vivo [11]: 13 ± 1.4 h

Sequence: MGQRIPVTLGNIAPLSLRPFQPGRIALVCEGGGQRGIFTAGVLDEFMRAQFNPFDLYLGTSAGAQNLSAFICNQPGYARKVIMRYTTKREFFDPLRFVRGGNLIDLDWLVEATASQMPLQMDTAARLFDSGKSFYMCACRQDDYAPNYFLPTKQNWLDVIRASSAIPGFYRSGVSLEGINYLDGGISDAIPVKEAARQGAKTLVVIRTVPSQMYYTPQWFKRMERWLGDSSLQPLVNLVQHHETSYRDIQQFIEKPPGKLRIFEIYPPKPLHSIALGSRIPALREDYKLGRLCGRYFLATVGKLLTEKAPLTRHLVPVVTPESIVIPPAPVANDTLVAEVSDAPQANDPTFNNEDLA
- total protein half-life in vivo [1]: 5.99 ± 1.5 h
- total protein half-life in vivo [2]: 1.8805 ± 0.0012 h
- total protein half-life in vivo [3]: 1.31 ± 0.025 h
- total protein half-life in vivo [4]: 1.89 ± 0.25 h
- total protein half-life in vivo [5]: 1.185 ± 0.0061 h
- total protein half-life in vivo [6]: 1.89 ± 0.15 h
- total protein half-life in vivo [7]: 3.889 ± 0.011 h
- total protein half-life in vivo [12]: 4.59 ± 0.59 h
- total protein half-life in vivo [8]: 1.45 ± 0.16 h
- total protein half-life in vivo [9]: 1.77 ± 0.024 h
- total protein half-life in vivo [10]: 2.12 ± 0.31 h
- total protein half-life in vivo [11]: 4.69 ± 0.97 h

Sequence: MGRILLDLSNEVIKQLDDLEVQRNLPRADLLREAVDQYLINQSQTARTSVPGIWQGCEEDGVEYQRKLREEW [P0AFU6]
- total protein half-life in vivo [2]: 6.89 h

Sequence: MGSNIHGISCTANNYLKQAWNDIKNEYEKNQTYSITLFENTLVCFMRLYNELRRKVNEEDTPCLECESLEKEFEEMQNDNDLSLFMRILRTNDTQIYSGVSGGITYTIQYVRDIDIVRVSLPGRASESITDFKGYYWYNFMEYIENINACDDVFSEYCFDDENISVQPERINTPGISDLDSDIDLSGISFIQRETNQALGLKYAPVDGDGYCLLRAILVLKQHDYSWALVSYKMQKEVYNEFIKMVDKKTIEALVDTAFYNLREDVKTLFGVDLQSDNQIQGQSSLMSWSFLFFKKQFIDSCLNNEKCILHLPEFIFNDNKNLLALDTDTSDRIKAVKNFLVVLSDSICSLFIVNSNVASISLGNESFSTDEDLEYGYLMNTGNHYDVYLPPELFAQAYKLNNKEMNAQLDYLNRYAI
- total protein half-life in vivo [4]: 5.18 h

Sequence: MGSPSLYSARKTTLALAVALSFAWQAPVFAHGGEAHMVPMDKTLKEFGADVQWDDYAQLFTLIKDGAYVKVKPGAQTAIVNGQPLALQVPVVMKDNKAWVSDTFINDVFQSGLDQTFQVEKRPHPLNALTADEIKQAVEIVKASADFKPNTRFTEISLLPPDKEAVWAFALENKPVDQPRKADVIMLDGKHIIEAVVDLQNNKLLSWQPIKDAHGMVLLDDFASVQNIINNSEEFAAAVKKRGITDAKKVITTPLTVGYFDGKDGLKQDARLLKVISYLDVGDGNYWAHPIENLVAVVDLEQKKIVKIEEGPVVPVPMTARPFDGRDRVAPAVKPMQIIEPEGKNYTITGDMIHWRNWDFHLSMNSRVGPMISTVTYNDNGTKRKVMYEGSLGGMIVPYGDPDIGWYFKAYLDSGDYGMGTLTSPIARGKDAPSNAVLLNETIADYTGVPMEIPRAIAVFERYAGPEYKHQEMGQPNVSTERRELVVRWISTVGNYDYIFDWIFHENGTIGIDAGATGIEAVKGVKAKTMHDETAKDDTRYGTLIDHNIVGTTHQHIYNFRLDLDVDGENNSLVAMDPVVKPNTAGGPRTSTMQVNQYNIGNEQDAAQKFDPGTIRLLSNPNKENRMGNPVSYQIIPYAGGTHPVAKGAQFAPDEWIYHRLSFMDKQLWVTRYHPGERFPEGKYPNRSTHDTGLGQYSKDNESLDNTDAVVWMTTGTTHVARAEEWPIMPTEWVHTLLKPWNFFDETPTLGALKKDK
- total protein half-life in vivo [1]: 4.75 h
- total protein half-life in vivo [5]: 5.04 ± 0.69 h
- total protein half-life in vivo [6]: 2.69 h
- total protein half-life in vivo [7]: 6.4 ± 0.067 h
- total protein half-life in vivo [12]: 6.83 h
- total protein half-life in vivo [9]: 11.8 h
- total protein half-life in vivo [11]: 11.1 ± 0.71 h
